Results published in the supplement of paper PMC9876800.

Tested on: peptide library, one residue held at a place counted from the S/T acceptor
Test: relative phosphorylation of the sub-library (ratio to the mean residue at this position); higher = residue favoured
Details: human
Method in brief: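 Each biotinylated degenerate peptide sub-library fixed one residue at one position around a central Ser/Thr and was incubated with a purified recombinant kinase, a human or orthologue construct, in 384-well plates. The 90 min reactions, under kinase-specific conditions, contained 50 μM peptide and 50 μM ATP spiked with γ-32P-ATP. Phosphorylation was read by phosphorimaging spots on streptavidin membranes and quantifying them by densitometry. Relative sub-library phosphorylation expresses each value as a ratio to the mean residue at that position.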

Chain of IRAK1, construct: aa186-530 (P51617 186-530, looked up): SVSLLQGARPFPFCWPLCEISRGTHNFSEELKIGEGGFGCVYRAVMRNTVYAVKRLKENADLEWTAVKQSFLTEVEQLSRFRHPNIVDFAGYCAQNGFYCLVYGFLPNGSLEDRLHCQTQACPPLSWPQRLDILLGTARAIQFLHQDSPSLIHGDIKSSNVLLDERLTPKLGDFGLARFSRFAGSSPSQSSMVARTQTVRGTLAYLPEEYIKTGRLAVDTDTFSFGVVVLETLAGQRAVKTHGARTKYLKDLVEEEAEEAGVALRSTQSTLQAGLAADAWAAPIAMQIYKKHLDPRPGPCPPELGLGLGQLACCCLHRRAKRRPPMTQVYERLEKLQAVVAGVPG
Chain of IKBKB, construct: Full length (O14920 whole entry, looked up): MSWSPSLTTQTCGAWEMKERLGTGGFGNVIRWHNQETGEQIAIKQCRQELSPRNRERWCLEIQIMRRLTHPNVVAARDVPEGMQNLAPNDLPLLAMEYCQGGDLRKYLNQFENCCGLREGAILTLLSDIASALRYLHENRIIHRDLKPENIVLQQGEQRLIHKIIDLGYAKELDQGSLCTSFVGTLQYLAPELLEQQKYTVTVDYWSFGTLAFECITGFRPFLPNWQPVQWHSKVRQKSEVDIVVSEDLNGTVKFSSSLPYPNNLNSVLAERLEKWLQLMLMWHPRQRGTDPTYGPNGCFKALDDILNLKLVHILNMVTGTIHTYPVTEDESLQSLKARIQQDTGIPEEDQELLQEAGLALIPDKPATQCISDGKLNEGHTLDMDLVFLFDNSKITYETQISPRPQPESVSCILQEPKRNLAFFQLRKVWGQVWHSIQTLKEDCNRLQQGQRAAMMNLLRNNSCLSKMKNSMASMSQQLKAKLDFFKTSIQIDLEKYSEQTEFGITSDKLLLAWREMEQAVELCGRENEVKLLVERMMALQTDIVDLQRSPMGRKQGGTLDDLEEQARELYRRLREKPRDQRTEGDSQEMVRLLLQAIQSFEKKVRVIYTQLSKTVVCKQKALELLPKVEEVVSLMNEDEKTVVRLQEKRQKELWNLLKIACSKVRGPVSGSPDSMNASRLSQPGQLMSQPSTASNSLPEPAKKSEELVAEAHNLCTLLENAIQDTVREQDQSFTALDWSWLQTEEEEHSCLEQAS
Chain of GRK6, construct: Full length (P43250 whole entry, looked up): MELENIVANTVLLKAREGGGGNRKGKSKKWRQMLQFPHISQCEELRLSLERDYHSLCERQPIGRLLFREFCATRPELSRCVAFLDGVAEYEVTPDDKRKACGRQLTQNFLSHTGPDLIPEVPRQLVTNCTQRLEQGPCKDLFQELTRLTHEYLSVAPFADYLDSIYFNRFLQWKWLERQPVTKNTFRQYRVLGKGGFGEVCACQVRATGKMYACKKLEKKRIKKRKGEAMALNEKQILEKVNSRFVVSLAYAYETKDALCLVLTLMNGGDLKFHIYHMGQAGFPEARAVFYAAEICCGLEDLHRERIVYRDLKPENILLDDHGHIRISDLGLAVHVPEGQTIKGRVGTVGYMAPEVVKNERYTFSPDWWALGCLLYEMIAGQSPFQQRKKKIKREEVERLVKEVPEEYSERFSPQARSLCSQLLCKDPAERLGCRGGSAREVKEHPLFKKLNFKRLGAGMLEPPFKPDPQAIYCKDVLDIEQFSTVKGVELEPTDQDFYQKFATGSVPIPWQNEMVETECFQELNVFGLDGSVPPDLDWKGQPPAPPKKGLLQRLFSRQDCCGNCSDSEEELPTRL

GRK6, construct: Full length (from UniProt P43250)
relative phosphorylation
Details | at +1 | at +2 | at +3 | at +4 | at -1 | at -2 | at -3 | at -4 | at -5
A fixed | 0.673 | 1.15 | 0.704 | 0.819 | 0.727 | 0.898 | 0.871 | 1.07 | 1.01
D fixed | 1.13 | 1.55 | 2.51 | 2.04 | 1.42 | 0.993 | 1.73 | 1.37 | 1.41
E fixed | 2.44 | 1.11 | 3.21 | 1.96 | 1.35 | 1.02 | 1.66 | 1.44 | 1.31
F fixed | 1.1 | 0.983 | 0.866 | 0.826 | 0.903 | 1.19 | 0.803 | 0.781 | 1.03
G fixed | 0.61 | 0.867 | 0.716 | 0.91 | 0.601 | 0.761 | 0.793 | 0.935 | 0.932
H fixed | 0.721 | 0.978 | 0.758 | 0.914 | 1.35 | 0.895 | 0.92 | 1.01 | 0.988
I fixed | 1.44 | 1.17 | 0.665 | 0.78 | 0.817 | 0.848 | 0.778 | 0.951 | 1.06
K fixed | 0.654 | 0.7 | 0.59 | 0.796 | 0.854 | 0.878 | 0.806 | 0.955 | 0.873
L fixed | 1.11 | 0.765 | 0.695 | 0.764 | 1.1 | 1.88 | 0.914 | 0.98 | 0.879
M fixed | 1.25 | 0.954 | 0.78 | 0.946 | 0.948 | 1.09 | 0.852 | 0.953 | 0.882
N fixed | 0.771 | 0.893 | 0.726 | 0.864 | 1.29 | 1.02 | 1.08 | 1.03 | 0.988
P fixed | 0.36 | 0.512 | 0.631 | 1.16 | 0.692 | 0.599 | 0.716 | 0.88 | 0.864
Q fixed | 1.03 | 0.763 | 0.653 | 0.852 | 0.82 | 0.87 | 0.899 | 0.887 | 0.775
R fixed | 0.736 | 0.811 | 0.696 | 0.626 | 0.942 | 1.2 | 1.59 | 1 | 0.928
V fixed | 1.24 | 1.43 | 0.821 | 0.763 | 0.947 | 0.766 | 0.713 | 0.844 | 1.06
W fixed | 0.794 | 1.16 | 0.991 | 1.12 | 0.745 | 1.23 | 0.937 | 0.997 | 1.01
Y fixed | 0.944 | 1.19 | 0.985 | 0.858 | 1.5 | 0.863 | 0.93 | 0.922 | 0.999
pThr fixed | 2.88 | 1.34 | 1.58 | 3.36 | 0.96 | 1.16 | 2.9 | 1.6 | 1.52
pTyr fixed | 3.28 | 1.43 | 1.67 | 2.06 | 1.5 | 1.51 | 1.82 | 1.82 | 1.7

IKBKB, construct: Full length (from UniProt O14920)
relative phosphorylation
Details | at +1 | at +2 | at +3 | at +4 | at -1 | at -2 | at -3 | at -4 | at -5
A fixed | 0.6 | 0.901 | 1.06 | 1.08 | 0.811 | 0.919 | 0.94 | 1.15 | 1.22
D fixed | 0.469 | 1.2 | 1.65 | 1.46 | 1.1 | 0.397 | 0.912 | 1.57 | 1.71
E fixed | 0.544 | 1.27 | 1.65 | 1.43 | 0.941 | 0.805 | 1.05 | 1.8 | 1.52
F fixed | 1.55 | 0.676 | 1.01 | 0.834 | 0.909 | 2.22 | 1.07 | 0.751 | 0.995
G fixed | 1.12 | 1.2 | 1.46 | 1.09 | 0.478 | 0.442 | 1 | 1.24 | 1.23
H fixed | 0.745 | 1.39 | 1.11 | 0.922 | 1.21 | 1.47 | 1.19 | 0.94 | 1.01
I fixed | 2.06 | 0.812 | 0.71 | 0.769 | 0.89 | 1.11 | 0.762 | 0.749 | 0.741
K fixed | 0.268 | 0.805 | 0.68 | 0.827 | 1.03 | 0.408 | 0.878 | 0.741 | 0.714
L fixed | 2.05 | 0.783 | 0.816 | 0.81 | 1.22 | 1.48 | 0.699 | 0.754 | 0.687
M fixed | 1.66 | 0.701 | 0.8 | 0.995 | 1.09 | 1.16 | 0.764 | 0.907 | 0.738
N fixed | 0.613 | 1.5 | 1.1 | 1.08 | 1.15 | 1.06 | 1.01 | 0.988 | 1.03
P fixed | 0.228 | 1.13 | 0.931 | 1.43 | 1.06 | 0.371 | 1.31 | 1.17 | 0.973
Q fixed | 0.576 | 1.25 | 0.91 | 1.06 | 0.989 | 0.73 | 0.922 | 0.878 | 0.908
R fixed | 0.362 | 1.08 | 0.608 | 0.672 | 1.07 | 0.583 | 1.76 | 0.975 | 0.842
V fixed | 1.38 | 1.1 | 0.688 | 0.738 | 0.998 | 0.762 | 0.843 | 0.804 | 0.89
W fixed | 1.46 | 0.525 | 0.904 | 1.02 | 0.895 | 0.85 | 0.885 | 0.733 | 0.926
Y fixed | 1.33 | 0.665 | 0.917 | 0.773 | 1.16 | 2.23 | 1.01 | 0.851 | 0.864
pThr fixed | 0.817 | 1.38 | 0.898 | 1.53 | 1.01 | 1.08 | 1.55 | 1.97 | 1.93
pTyr fixed | 1.03 | 1.32 | 1.23 | 1.06 | 1.77 | 4.33 | 2.11 | 1.48 | 1.51

IRAK1, construct: aa186-530 (from UniProt P51617)
relative phosphorylation
Details | at +1 | at +2 | at +3 | at +4 | at -1 | at -2 | at -3 | at -4 | at -5
A fixed | 0.864 | 0.732 | 0.528 | 0.839 | 0.549 | 1.22 | 1.05 | 0.838 | 0.984
D fixed | 0.289 | 0.355 | 0.361 | 0.391 | 0.359 | 0.433 | 0.405 | 0.63 | 0.557
E fixed | 0.435 | 1.03 | 0.316 | 0.501 | 0.236 | 0.423 | 0.57 | 0.668 | 0.629
F fixed | 1.34 | 0.929 | 1.71 | 0.843 | 1.69 | 1.07 | 1.02 | 1.17 | 1.09
G fixed | 1.28 | 0.501 | 0.55 | 0.766 | 0.4 | 0.801 | 0.874 | 0.846 | 1.01
H fixed | 0.703 | 1.2 | 0.889 | 1.13 | 1.34 | 1.12 | 1.55 | 1.08 | 1.3
I fixed | 2.14 | 2.49 | 1.84 | 1.27 | 0.864 | 1.08 | 1.19 | 1.29 | 1.38
K fixed | 0.885 | 0.442 | 0.719 | 1.32 | 0.789 | 0.64 | 1.02 | 1.06 | 1.01
L fixed | 1.25 | 0.867 | 1.22 | 1.13 | 0.847 | 1.67 | 1.11 | 1.09 | 0.973
M fixed | 1.59 | 1.07 | 1.56 | 1.17 | 1.02 | 1.78 | 1.43 | 1.08 | 1.12
N fixed | 0.604 | 0.781 | 0.558 | 0.806 | 0.776 | 1.47 | 0.918 | 1.33 | 0.973
P fixed | 0.159 | 0.336 | 0.221 | 0.969 | 0.287 | 0.495 | 0.464 | 0.559 | 0.696
Q fixed | 1.08 | 0.734 | 0.567 | 0.766 | 0.527 | 0.957 | 0.954 | 0.813 | 0.845
R fixed | 1.05 | 0.633 | 1.04 | 1.75 | 1.53 | 1.16 | 1.5 | 0.988 | 1.29
V fixed | 1.69 | 1.95 | 1.07 | 0.745 | 0.863 | 0.788 | 0.849 | 1.16 | 1.07
W fixed | 0.854 | 1.37 | 2.17 | 1.54 | 2.85 | 0.745 | 0.9 | 1.11 | 0.809
Y fixed | 0.799 | 1.58 | 1.69 | 1.06 | 2.08 | 1.13 | 1.21 | 1.27 | 1.27
pThr fixed | 0.544 | 0.539 | 0.403 | 0.473 | 0.484 | 0.857 | 0.765 | 1.09 | 0.722
pTyr fixed | 0.357 | 0.562 | 0.482 | 0.464 | 0.522 | 0.756 | 1.19 | 0.831 | 0.843

MAP3K5, construct: aa659-951 (from UniProt Q99683)
relative phosphorylation
Details | at +1 | at +2 | at +3 | at +4 | at -1 | at -2 | at -3 | at -4 | at -5
A fixed | 0.385 | 0.72 | 0.897 | 0.901 | 0.825 | 1.66 | 1.44 | 1.09 | 1.01
D fixed | 0.255 | 0.881 | 0.707 | 0.815 | 0.699 | 0.504 | 0.689 | 0.908 | 0.899
E fixed | 0.344 | 0.473 | 0.652 | 0.812 | 0.685 | 0.471 | 0.738 | 0.906 | 0.815
F fixed | 2 | 1.32 | 1.22 | 0.964 | 1.08 | 0.77 | 0.826 | 1.04 | 1.17
G fixed | 0.324 | 0.521 | 0.951 | 0.926 | 1.58 | 1.12 | 0.979 | 1.08 | 1.28
H fixed | 1.1 | 1.06 | 1.04 | 1.12 | 1.06 | 0.985 | 1.24 | 1.02 | 1.19
I fixed | 2.04 | 0.648 | 1.01 | 0.717 | 0.507 | 1.12 | 0.905 | 0.897 | 0.75
K fixed | 0.375 | 1.08 | 1.04 | 1.88 | 1.13 | 0.61 | 1.02 | 0.913 | 1.13
L fixed | 1.33 | 0.806 | 1.03 | 0.943 | 0.993 | 1.12 | 1.01 | 0.827 | 0.747
M fixed | 0.894 | 0.812 | 1.06 | 0.877 | 1.06 | 1.17 | 0.894 | 1.04 | 0.88
N fixed | 0.382 | 0.615 | 0.793 | 0.743 | 1.04 | 1.36 | 0.989 | 0.807 | 0.792
P fixed | 0.352 | 0.543 | 1.03 | 1.02 | 1.07 | 1.22 | 1.36 | 1.22 | 1.41
Q fixed | 0.498 | 0.64 | 0.806 | 0.89 | 0.775 | 0.987 | 1 | 1.01 | 0.919
R fixed | 0.401 | 1.34 | 1.31 | 1.5 | 1.6 | 0.941 | 1.04 | 0.965 | 1.08
V fixed | 1.78 | 0.645 | 1.01 | 0.723 | 0.54 | 1.09 | 0.835 | 1.12 | 0.836
W fixed | 1.97 | 1.32 | 1.14 | 1.33 | 0.981 | 0.777 | 1.12 | 1.08 | 0.996
Y fixed | 2.56 | 3.57 | 1.29 | 0.846 | 1.37 | 1.09 | 0.904 | 1.07 | 1.09
pThr fixed | 0.556 | 0.528 | 0.673 | 0.597 | 0.672 | 0.847 | 0.914 | 0.985 | 1
pTyr fixed | 0.623 | 0.518 | 0.863 | 0.704 | 1.47 | 0.793 | 0.884 | 1.04 | 1.24
